Experimental data taken from US6132731, “Murine leukemia virus vectors” (Oxford Biomedica (UK) Limited, dated 2000).

What was measured:
VLA4 receptor (human) = VLA4 receptor (human) (UniProt P13612)
VLA4 receptor = VLA4 receptor (human, UniProt P13612); assay: cell-based or functional assay
VLA3 receptor = VLA3 receptor (human, UniProt P26006); assay: cell-based or functional assay
VLA5 receptor = VLA5 receptor (human, UniProt P08648); assay: cell-based or functional assay

In the case of “amphotropic MLV envelope (isolate 4070a) (plasmid pHIT456)”, the viral titer of pHIT456 (amphotropic) virus on U937 cells in the presence of anti-VLA4 antibody (VLA4 receptor (human)) is reported as 40000 viral titer.

B1: hybrid ecotropic MLV envelope with the VCAM-1 sequence at site II (plasmid pHIT510) (other)
chain: ASPGSSPHQVYNITWEVTNGDRETVWATSGNHPLWTWWPDLTPDLCMLAHHGPSYWGLEYQSPFSSPPGPPCCSGGSSPGCSRDCEEPLTSLTPRCNTAWNRLKLDQTTHKSNEGFYVCTIDSPLNCGGPDSFYCAYWGCETTGRAYWKPSSSWDFITVNNNLTSDQAVQVCKDNKWCNPLVIRFTDAGRRVTSWTTGHYWGLRLYVSGQDPGLTFGIRLRYQNLGPRVPIGPNPVLADQQPLSKPKPVKSPSVTKPPSGTPLSPTQLPPAGTENRLLNLVDGAYQALNLTSPDKTQECWLCLVAGPPYYEGVAVLGTYSNHTSAPANCSVASQHKLTLSEVTGQGLCIGAVPKTHQALCNTTQTSSRGSYYLVAPTGTMWACSTGLTPCISTTILNLTTDYCVLVELWPRVTYHSPSYVYGLFERSNRHKREPVSLTLALLLGGLTMGGIAAGIGTGTTALMATQQFQQLQAAVQDDLREVEKSISNLEKSLTSLSEVVLQNRRGLDLLFLKEGGLCAALKEECCFYADHTGLVRDSMAKLRERLNQRQKLFESTQGWFEGLFNRSPWFTTLISTIMGPLIVLLMILLFGPCILNRLVQFVKDRISVVQALVLTQQYHQLKPIEYEP
For B1, the “viral titer on U937 cells (lacZ delivery, X-gal staining)” value (“viral titer on U937 cells” below) (VLA4 receptor) was 150 viral titer.

B2: hybrid ecotropic MLV envelope with FLA16 at site II (plasmid pHIT508) (other)
chain: ASPGSSPHQVYNITWEVTNGDRETVWATSGNHPLWTWWPDLTPDLCMLAHHGPSYWGLEYQSPFSSPPGPPCCSGGSSPGCSRDCEEPLTSLTPRCNTAWNRLKLDQTTHKSNEGFYVCQGATFALRGDNPQGCGGPDSFYCAYWGCETTGRAYWKPSSSWDFITVNNNLTSDQAVQVCKDNKWCNPLVIRFTDAGRRVTSWTTGHYWGLRLYVSGQDPGLTFGIRLRYQNLGPRVPIGPNPVLADQQPLSKPKPVKSPSVTKPPSGTPLSPTQLPPAGTENRLLNLVDGAYQALNLTSPDKTQECWLCLVAGPPYYEGVAVLGTYSNHTSAPANCSVASQHKLTLSEVTGQGLCIGAVPKTHQALCNTTQTSSRGSYYLVAPTGTMWACSTGLTPCISTTILNLTTDYCVLVELWPRVTYHSPSYVYGLFERSNRHKREPVSLTLALLLGGLTMGGIAAGIGTGTTALMATQQFQQLQAAVQDDLREVEKSISNLEKSLTSLSEVVLQNRRGLDLLFLKEGGLCAALKEECCFYADHTGLVRDSMAKLRERLNQRQKLFESTQGWFEGLFNRSPWFTTLISTIMGPLIVLLMILLFGPCILNRLVQFVKDRISVVQALVLTQQYHQLKPIEYEP
For B2, the “viral titer on U937 cells” value (VLA3 receptor) was 150 viral titer and the “viral titer on U937 cells” value (VLA5 receptor) was 150 viral titer.
